In article PMC6997370, “Significant improvement in catalytic activity and enantioselectivity of a Phaseolus vulgaris epoxide hydrolase, PvEH3, towards ortho-cresyl glycidyl ether based on the semi-rational design” (Scientific Reports, 2020):
Substitutions are numbered along the chain they refer to. Names may count otherwise.

Key:
[1] = substrate: Cc1ccccc1OC[C@H]1CO1; assay: initial hydrolysis rate by HPLC, non-linear regression; type: biochemical, Phaseolus vulgaris; conditions: pH 7.0 phosphate 100 mM, 20 °C, 5% methanol, 1.5-15 mM substrate
From the text: (§1) initial hydrolysis rate by HPLC, non-linear regression on PvEH3

[2] = substrate: Cc1ccccc1OC[C@@H]1CO1; assay: as above; type: biochemical, Phaseolus vulgaris; conditions: pH 7.0 phosphate 100 mM, 20 °C, 5% methanol, 1.5-15 mM substrate
From the text: as §1

B1: PvEH3 (Phaseolus vulgaris) (protein)
chain: MEGIQHKEVEVNGIKMHVAEKGEGPVVLFLHGFPELWYSWRHQILALSSRGYRAVAPDLRGYGDTEAPASMSSYSCFDIVGDLVALIDLLGVDQVFLVAHDWGAIIGWYLCMFRPDRVKAYVCLSVPLLHRNPEIRTVDAMRAMYGDDYYICRFQKPGEMEAQMAEVGTGYVLKNILTTRKPGPPIFPKGEYGTGFNPDMTNSLPSWLSQHDLAYYVSKFQKTGFTGPLNYYRNMNPNWELTAPWSGAKIKVPVKFITGDLDMVYTSLNMKEYIHGGGFKEDVPNLEEVIVQKGVAHFNNQEAAEEINTHIYDFINKF
notes: pET-28a(+), N-terminal 6xHis tag, E. coli BL21(DE3), Ni-NTA purified; catalytic Asp101, Tyr150, Tyr232
B1 gave a Km [1] of 9.84 ± 0.28 mM, a kcat [1] of 1.12 ± 0.05 s⁻¹ and a Km [2] of 6.14 ± 0.22 mM.

B2: PvEH3 (Phaseolus vulgaris; E134K/T137P) (protein)
chain: B1 chain with E134K, T137P
notes: as for B1
B2 showed a Km [1] of 5.40 ± 0.21 mM, a kcat [1] of 1.37 ± 0.06 s⁻¹ and a Km [2] of 3.29 ± 0.15 mM.
